The values below come from patent US20110223176A1 (AbbVie / Abbott, published 2011).

Experiment [1] concerns the target T1, human BSG2 (basigin isoform 2) on the cell surface (human, UniProt P35613 140-385).
T1 construct: Presented on stably transfected BAF3 cells or endogenously on human tumor cell lines (HepG2, MiaPaCa-2, DoHH-2); also called hBSG2; CD147
T1 sequence: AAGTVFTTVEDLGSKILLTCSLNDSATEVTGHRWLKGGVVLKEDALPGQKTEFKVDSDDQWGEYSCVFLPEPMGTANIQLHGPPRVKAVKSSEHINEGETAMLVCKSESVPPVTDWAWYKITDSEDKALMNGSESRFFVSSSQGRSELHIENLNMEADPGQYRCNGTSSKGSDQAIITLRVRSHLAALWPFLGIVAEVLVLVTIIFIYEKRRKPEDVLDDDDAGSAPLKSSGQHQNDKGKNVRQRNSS
Kind of experiment: cell-based ECL (MSD) binding on cells expressing human BSG2. The method, then: Cells were plated at 25,000 cells/well in 25 μl PBS using 96 well MSD high binding plates (MSD, catalogue no. L11XB-3), and incubated at 37° C. for 1 hour. 25 μl/well of blocking solution (30% serum in PBS) was added to the plates for 30 minutes at room temperature with mild agitation. Plates were then incubated with 25 μl/well of BSG2 antibodies (10 μg/ml) diluted in assay buffer (10% serum in PBS) for 1 hour at room temperature with mild agitation, and then washed 3× with PBS. Goat anti-mouse or anti-human IgG sulfotag was added at 1 μg/ml for 1 hour with mild agitation, and plates were washed 3× with PBS. After the final wash, plates were incubated with 2×MSD surfactant-free read buffer (catalogue no. R92TD-2) and the signal was detected on a MSD SECTOR Imager 6000. Data were analyzed using Graphpad Prism software and EC₅₀ values were reported.
Select humanized variants were also tested for their functionality using ADCC and cell viability assays (described in Examples 1.6 and 1.7).

Experiment [2] deals with T1, human BSG2 (basigin isoform 2) on the …. The experiment in a line: receptor binding assay, Eu-labeled antibody on cells expressing human BSG2. How it is done: Cell lines expressing BSG2 were harvested and washed once in assay buffer (PBS, 0.1% BSA, 0.02% Na Azide, 10 mM EDTA) and resuspended to 5×10⁶ cells per mL. Serial 1:2 dilutions of ⁺³Eu-labeled anti-BSG2 antibody stock in assay buffer were made for final concentrations ranging from 1.6×10⁻⁸-7.7×10⁻¹² M, and a 4 mg/mL solution of unlabeled anti-BSG2 antibody was also prepared. To 96 well round bottom plates, 25 μl of ⁺³Eu-labeled antibody dilutions were added to 25 μl buffer (total counts), or 25 μl of unlabeled antibody were added to 25 μl buffer (background counts). 50 μl of cells at 2.5×10⁵ cells per well were then added to all samples, mixed gently, and incubated on ice for 1 hour. Cell bound antibody was then separated from unbound antibody by transferring 20 μL of the reaction mixture to Acrowell 96 well filter plates (Pall PN 5020), centrifuged for 5 min (2200 rpm), washed 3× with 150 μL cold assay buffer, and centrifuged for 5 min. Signal was determined by incubating samples with 150 μL/well of enhancement buffer and read using Envision. The specific counts were determined by subtracting the background counts (cells+labeled antibody+excess cold antibody) from the corresponding total counts (cells+labeled antibody) for each antibody concentration. The labeled antibody concentration versus total counts was analyzed using Graphpad Prism 4 to calculate Kd and Bmax values.

The target is the same in experiment [3]. The experiment in a line: cell-based or functional assay.
For experiment [4] the target is unchanged. The experiment in a line: cell-based or functional assay. The source holds these as a separate data set.

B1: humanized 6A11-3A3 antibody h3A3-8 (VH.1/VL.1a) (antibody, V domains shown)
VH: EVQLVESGGGLVQPGGSLRLSCAASGFTFSNFWMDWVRQAPGKGLEWVGGIRLKSYNYATHYAESVKGRFTISRDDSKNTAYLQMNSLRAEDTAVYYCTRWDGAYWGQGTLVTVSS
VL: DIQMTQSPSSLSASVGDRVTITCKASQDVSTDVAWYQQKPGKSPKLLIYSASYRYTGVPSRFSGSGSGTDFTLTISSLQPEDIATYYCQQHYSTPFTFGQGTKLEIK
The term EC50 denotes the concentration needed to bring the measured effect to its halfway point. High values mean a less potent agent, low ones a more potent agent. As for B1, the 50% effective concentration (EC50) in experiment [1] was determined as 6.9 nM.

B2: humanized 6A11-3A3 antibody h3A3-12 (VH.1a/VL.1b) (antibody, IgG1, V domains shown)
VH: EVQLVESGGGLVQPGGSLRLSCAASGFTFSNFWMDWVRQAPGKGLEWIAGIRLKSYNYATHYAESVKGRFTISRDDSKSTVYLQMNSLRAEDTAVYYCTDWDGAYWGQGTLVTVSS
VL: DIVMTQSPSSLSASVGDRVTITCKASQDVSTDVAWYQQKPGKSPKLLIYSASYRYTGVPSRFSGSGSGTDFTLTISSLQPEDIATYYCQQHYSTPFTFGQGTKLEIK
notes: IgG1
In general, Kd refers to the concentration at which binding is half-saturated. Low readings indicate a tighter complex, high ones a looser complex. As for B2, the dissociation constant Kd in experiment [2] is 2.3 nM. In experiment [3], the “ADCC assay (EC50 ng/ml of % specific lysis), HepG2 hepatocellular” value was found to be 9.3 ng/mL and the “Cross-linking assay (% viability, Cmax: 125 ng/ml), MiaPaCa pancreatic cells” value is 48.8 % viability. Moreover, the response in experiment [1] was half-maximal at 0.96 nM (EC50).

B3: humanized 6A11-3A3 antibody h3A3-9 (VH.1a/VL.1a) (antibody, V domains shown)
VH: EVQLVESGGGLVQPGGSLRLSCAASGFTFSNFWMDWVRQAPGKGLEWIAGIRLKSYNYATHYAESVKGRFTISRDDSKSTVYLQMNSLRAEDTAVYYCTDWDGAYWGQGTLVTVSS
VL: DIQMTQSPSSLSASVGDRVTITCKASQDVSTDVAWYQQKPGKSPKLLIYSASYRYTGVPSRFSGSGSGTDFTLTISSLQPEDIATYYCQQHYSTPFTFGQGTKLEIK
The molecule B3 displayed an EC50 in experiment [1] of 1.35 nM.

B4: humanized 6A11-3A3 antibody h3A3-5 (VH.1/VL.1) (antibody, V domains shown)
VH: EVQLVESGGGLVQPGGSLRLSCAASGFTFSNFWMDWVRQAPGKGLEWVGGIRLKSYNYATHYAESVKGRFTISRDDSKNTAYLQMNSLRAEDTAVYYCTRWDGAYWGQGTLVTVSS
VL: DIQMTQSPSSLSASVGDRVTITCKASQDVSTDVAWYQQKPGKAPKLLIYSASYRYTGVPSRFSGSGSGTDFTLTISSLQPEDIATYYCQQHYSTPFTFGQGTKLEIK
In turn, B4 gave an EC50 in experiment [1] greater than 100 nM.

B5: humanized 6A11-3A3 antibody h3A3-6 (VH.1a/VL.1) (antibody, IgG1, V domains shown)
VH: EVQLVESGGGLVQPGGSLRLSCAASGFTFSNFWMDWVRQAPGKGLEWIAGIRLKSYNYATHYAESVKGRFTISRDDSKSTVYLQMNSLRAEDTAVYYCTDWDGAYWGQGTLVTVSS
VL: DIQMTQSPSSLSASVGDRVTITCKASQDVSTDVAWYQQKPGKAPKLLIYSASYRYTGVPSRFSGSGSGTDFTLTISSLQPEDIATYYCQQHYSTPFTFGQGTKLEIK
notes: IgG1
On to B5, for which, in experiment [2], the dissociation constant Kd is 5.2 nM. Besides, in experiment [3], the “ADCC assay (EC50 ng/ml of % specific lysis), HepG2 hepatocellular” value amounted to 16.4 ng/mL and the “Cross-linking assay (% viability, Cmax: 125 ng/ml), MiaPaCa pancreatic cells” value is 47.9 % viability. Further, the response in experiment [1] was half-maximal at 2.05 nM (EC50).

B6: humanized 6A11-3A3 antibody h3A3-11 (VH.1/VL.1b) (antibody, V domains shown)
VH: EVQLVESGGGLVQPGGSLRLSCAASGFTFSNFWMDWVRQAPGKGLEWVGGIRLKSYNYATHYAESVKGRFTISRDDSKNTAYLQMNSLRAEDTAVYYCTRWDGAYWGQGTLVTVSS
VL: DIVMTQSPSSLSASVGDRVTITCKASQDVSTDVAWYQQKPGKSPKLLIYSASYRYTGVPSRFSGSGSGTDFTLTISSLQPEDIATYYCQQHYSTPFTFGQGTKLEIK
Consider B6, for which the EC50 in experiment [1] is greater than 100 nM.

B7: mouse anti-human BSG2 antibody 1F4-2C1 with mouse IgG2a isotype (antibody, V domains shown)
VH: EVKLEESGGGLVQPGGSMKLSCVASGFTFSNFWMDWVRQSPEKGLEWVAEIRLKSTNYATHYAESVKGRFTISRDDSKSSVYLQMNNLRAEDTGIYYCTATSTGYWGQGTTLTVSS
VL: SIVMTQSPKILLVSAGDRVTITCKASQSVSNDVAWYQQKPGQSPKLLIYYASNRYTGVPDRFTGSGYGTDFTFTISTVQAEDLAVYFCQQDYSSPYTFGGGTKLEIK
Regarding B7, the “CDC assay (% killing at 10 µg/ml Ab), MiaPaCa-2 pancreatic cancer cells” value in experiment [4] was determined as 87 % killing.

B8: chimeric antibody 6A11-3A3 (human IgG1 constant regions) (antibody, V domains shown)
VH: EVKLEESGGGLVQPGGSMKLSCVASGFTFSNFWMDWVRQSPEKGLEWIAGIRLKSYNYATHYAESVKGRFTISRDDSKSSVYLQMNNLRAEDTGIYYCTDWDGAYWGQGTLVTVSA
VL: DIVMTQSHKFMSTSVGDRVSITCKASQDVSTDVAWYQQKPGQSPKLLIYSASYRYTGVPDRFTGSGSGTDFTFTISSVQAEDLAVYYCQQHYSTPFTFGSGTKLEIK
On to B8, for which the “ADCC assay (EC50 ng/ml of % specific lysis), HepG2 hepatocellular cancer cells” value in experiment [4] was determined as 7.3 ng/mL. In experiment [3], the “ADCC assay (EC50 ng/ml of % specific lysis), HepG2 hepatocellular” value amounted to 12.5 ng/mL and the “Cross-linking assay (% viability, Cmax: 125 ng/ml), MiaPaCa pancreatic cells” value was 55.5 % viability.
